Experimental data taken from the supplement of paper PMC9170038.

System: MS2 coat protein
Assay: apparent KD of MS2 coat protein; designed switch direction (-1 OFF switch, 1 ON switch): 1; higher = weaker reporter binding
In short: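 The apparent KD reported per design is the median over clusters of curve fits to normalised cluster fluorescence. The RNA switches were transcribed on Illumina chips by stalled E. coli RNA polymerase. SNAP-549-labelled MS2 coat protein was titrated from 0.7 or 1.5 nM, doubling up to 3 µM, in Tris-HCl pH 7.5 buffer containing KCl, MgCl2, BSA, DTT, tRNA and Tween-20, with no input, 200 uM small-molecule ligand, or an oligonucleotide input.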

[1] = Eterna round: R95, input ligand: FMN 200 uM
[2] = Eterna round: R95, input ligand: microRNA oligo, concentration not stated
[3] = Eterna round: R95, input ligand: none
[4] = input ligand: microRNA oligo, concentration not stated

Row | Sequence | apparent KD of MS2 coat protein [1] | apparent KD of MS2 coat protein [2] | apparent KD of MS2 coat protein [3] | apparent KD of MS2 coat protein (input ligand: FMN 200 uM) | apparent KD of MS2 coat protein [4] | apparent KD of MS2 coat protein (input ligand: none)
1 | CGUUCUUACUCGGUACGGUGAGUAGAGGAACAUGAGGAUCACCCAUGUUUGAGCUUUUUGCUCGUGAUUAACAGUUG [JR_SHM208a_Sub015] (puzzle: Sensor for hsa-mir-208a) | 92.2 nM | 102 nM | 149 nM |  |  | 
2 | GGUGGGUUACUACCCACACAUGAGGAUCACCCAUGUAUUGGGAAGGAUAUGGUACCUAUUUGGUACCAGAAGGUCCUGAAGGUG [SS-NG3-LRO16] (Eterna round: R96, puzzle: Same State NG 3) |  |  |  | 638 nM | 545 nM | 1170 nM
3 | AGCUAGUACCGAGGAUAUACAUACAUGAGGAUCACCCAUGUAUACAUGAAUAUAUGAGACUACAUGUAGAAGGCGGUACUAGCA [Mat - Same State NG 2 - JL mod - D46] (Eterna round: R96, puzzle: Same State NG 2) |  |  |  | 16.2 nM | 42 nM | 60.5 nM
4 | AUAAGGCAAGCUUUUUUCUCGUAGUGUAAACAUGAGGAUCACCCAUGUGCCCACCCUGGAUCUUUGGAUCGCGGAAC [Raxesori] (Eterna round: R96, puzzle: Sensor for hsa-mir-208a) |  |  |  | 103 nM | 21.8 nM | 90.5 nM
5 | ACAUGAGACUUAGGAUAUGUUGUACCUACAUGUGACAUGAGGAUCACCCAUGUGGUAAGUAUGACACAGAAGGAAGAGAUAUGU [Equivalance 67 - Jieux - Same State NG 2] (Eterna round: R96, puzzle: Same State NG 2) |  |  |  |  | 18.9 nM | 
6 | ACAUGAAAUUCAGGAUAUUUUGUACCUACAUGUGACAUGAGGAUCACCCAUGUGGUAAGUAUGAGAAAGAAGGGAAAGAUAUGU [Equivalence 10 - Jieux - Same State NG 2] (Eterna round: R96, puzzle: Same State NG 2) |  |  |  | 25.4 nM | 41.9 nM | 45.6 nM
7 | GUGCAACCGUGUGAGGAUAUCGGUGAACAAACAUGAGGAUCACCCAUGUCCGAAGCUCGGUUCUCCGAGAAGGCGCACAGUUGCA [Same State 2 - Mod of Erisin v.3] (puzzle: Same State 2) | 72.6 nM | 105 nM | 224 nM |  |  | 
8 | GUGGUCAGACAUGAGGAUCACCCAUGUGGAAUAAAUAAGGGAGAGGAUAUUUAAUAUAGGAUAUAAAAGAAGGCUCGGUUGGUG (Eterna round: R96, puzzle: Same State NG 3) |  |  |  | 86.3 nM | 113 nM | 115 nM
9 | GCUGCAAUUAACGCCUACAUGAGGAUCACCCAUGUAUGUAGGCAGGAUAUCGUUUGCAAAGCAAACGAGAAGGGCUGUAGUAGC [Mat - Same State NG 3 - JL Mod - D37] (Eterna round: R96, puzzle: Same State NG 3) |  |  |  | 65.4 nM | 83.4 nM | 113 nM
10 | GAUCGUUUGAUAGGAUAUCGCUAUACAUGAGGAUCACCCAUGUUUACCACGCUGGUUUUUCAUACCGAGAAGGAUUCUGAUGAA [salish99_SSNG02_r04_010] (Eterna round: R96, puzzle: Same State NG 2) |  |  |  | 27.5 nM | 27.8 nM | 30.7 nM
11 | UUGUGUUUGCGAGGAUAUCGUUUGUUGAAGUUACGAGAAGGCGCUCUCUUUACAUGAGGAUCACCCAUGUCUUUGAUGCAUGAU [JR_SSNG1_Sub072] (Eterna round: R96, puzzle: Same State NG 1) |  |  |  | 81.1 nM | 53.5 nM | 75.1 nM
12 | AGGAUAACACAUGAGGAUCACCCAUGUAUUAUUAUUACAAGCUUUUUGCUCGUUUUUAAUAAUACAUGUGUUAUUUU [Default title] (puzzle: Sensor for hsa-mir-208a version 2) | 88.2 nM | 88.7 nM | 133 nM |  |  | 
13 | AGUCCAGCCUGAGCUGGACAAAAGCAUGUACAUGAGGAUCACCCAUGUUCAUGUACAAGCUUUUUGCUCGUCUUAAA [salish99_208a_r3_026] (puzzle: Sensor for hsa-mir-208a) | 483 nM | 14.6 nM | 533 nM |  |  | 
14 | GUACGUGCAACGUAGGAUAUCCACGACACGACAUGAGGAUCACCCAUGUCAAGGCUUAAAAGUCGGGAGAAGGGCGAACCACGGA [Xereenge] (puzzle: Same State 2) | 14.5 nM | 15.9 nM | 19.2 nM |  |  | 
15 | UACAAUCUAUCUGAGGAUAUCAUGAAGAAAACAUGAGGAUCACCCAUGUGCAGGAUAACUGCAAAUGAGAAGGCAGAUAGAUUGU [Mat - Same State 2 - Mod - D5] (puzzle: Same State 2) | 8.19 nM | 18.5 nM | 18 nM |  |  | 
16 | UGGCUGGUGCUAGGAUAUGCAUGAGGCCUCCUCGUAGAAGGAGCACGACAUGAGGAUCACCCAUGUGGCCGUCCGUGGACGGCU [salish99_SSNG1_r04_014] (Eterna round: R96, puzzle: Same State NG 1) |  |  |  | 45.4 nM | 44.9 nM | 56.1 nM
17 | ACAUGAGACCAAGGAUAUGUUGUACCUACAUGUGACAUGAGGAUCACCCAUGUGGUAAGUAUGAGGCAGAAGGUGGAGAUAUGU [Equivalence 26 - Jieux - Same State NG 2] (Eterna round: R96, puzzle: Same State NG 2) |  |  |  | 26.5 nM | 44.2 nM | 59.3 nM
18 | AAGAAUCUAUCUCAGGAUAUCAUGUCAAAGACAUGAGGAUCACCCAUGUACCAGGAAACUGGUUAUGAGAAGGGAGAUAGAUUCA [Mat - Same State 2 - Mod - D31] (puzzle: Same State 2) | 98.6 nM | 118 nM | 79.6 nM |  |  | 
19 | GGCAGGUGCAGGCUUGCUUGCACCUGGAAACAUGAGGAUCACCCAUGUUUGGGACAAGCUUUGCUCUUCGUUUUGUC [JL ViennaUCT Isusreraar mod 4] (puzzle: Sensor for hsa-mir-208a) | 35.3 nM | 40.4 nM | 47 nM |  |  | 
20 | GGUAGGUUACUACCAACACAUGAGGAUCACCCAUGUUUUCAUGAGGAUAUGGUACCUAUUUGGUACCAGAAGGCAUGGUUAAUU [Fiskers NG3ss - 18] (Eterna round: R96, puzzle: Same State NG 3) |  |  |  | 48.6 nM | 76.8 nM | 104 nM
21 | UCUUGGUUUUUGCUCGUUUUUUGUGUUGAACAUGAGGAUCACCCAUGUAUUGUACGGUCCAGUUUAGUAAUGGUCCA [JMF 7] (puzzle: Sensor for hsa-mir-208a) | 26.3 nM | 16.3 nM | 27.8 nM |  |  | 
22 | GUAGCAUACCGAGGAUAUUCAUUACAUGAGGAUCACCCAUGUUAAUUAUAGGCCAAAAGGCCUUGGGAGAAGGCGGAAUGCUAC [Xeonanis - 20 Mod13] (Eterna round: R96, puzzle: Same State NG 2) |  |  |  | 12.2 nM | 8.28 nM | 13.3 nM
23 | CCGUAGAUGGUAGGAUAUGGAGCCUUAUUGGCUCCAGAAGGAUCUAAAACAUGAGGAUCACCCAUGUCGGCGGUCAAUAGACCG [Eli NG1ss - 83] (Eterna round: R96, puzzle: Same State NG 1) |  |  |  | 67.2 nM | 65.1 nM | 107 nM
24 | GUAGCAUACCGAGGAUAUUCAUAUUAAAUUACAUGAGGAUCACCCAUGUAGGCCAAAAGGCCUUGGGAGAAGGCGGAAUGCUAC [Xeonanis - 20 Mod1] (Eterna round: R96, puzzle: Same State NG 2) |  |  |  | 18.8 nM | 89.3 nM | 102 nM
25 | GGAAAACAUGAGGAUCACCCAUGUAAUAAUAUGGGAGGAUAUCAGAUUUAAUUUAAUUUAUGAGAAGGCCUAAAGG [Mat - Same State 1 - Mod of Eli - D64] (puzzle: Same State 1) | 85 nM | 43.2 nM | 30.6 nM |  |  | 
26 | GAGAGACAUGAGGAUCACCCAUGUAGGAGAAGACAAGGAUAUGUAGGAGAAGGAGAAGGAACAGAAGGUGUGGGAG [JR_SS1_Sub051] (puzzle: Same State 1) | 57.9 nM | 96.6 nM | 109 nM |  |  | 
27 | GCGAGCGUACUUGCAGACAUGAGGAUCACCCAUGUAACUGGACAGGAUAUGGUACCGUUUCGGUACCAGAAGGGUUUAUUCAUG [JL SSNG3 3.56] (Eterna round: R96, puzzle: Same State NG 3) |  |  |  | 83.4 nM | 63.5 nM | 56.2 nM
28 | GGAUGAUAGAUAGGAUAUUGAUUGUAAUUAUGUCAAGAAGGAUCUUUGAUUUAAACGACCAGUUACAUGAGGAUCACCCAUGUU [JR_SSNG1_Sub087] (Eterna round: R96, puzzle: Same State NG 1) |  |  |  | 23.3 nM | 30.4 nM | 43.6 nM
29 | GCACAUGAGGAUCACCCAUGUGCGAGAAAGACGGACCGGAUACAGGAUAUGCGCGAACGGAAGACGCAGAAGGGUGACCAAAAC [Anmaed] (Eterna round: R96, puzzle: Same State NG 3) |  |  |  | 64.1 nM | 38.2 nM | 40.6 nM
30 | GGAUGACGGACAGGAUAUUGGUGCUAAUGGUGUCAAGAAGGGUCUUCGAUAUAUACGACCAGUUACAUGAGGAUCACCCAUGUU [JR_SSNG1_Sub034] (Eterna round: R96, puzzle: Same State NG 1) |  |  |  | 20.2 nM | 30.5 nM | 40 nM
